# Assay results: patent US20260008815A1, “CYCLIC PEPTIDE OR SALT THEREOF, AND USES THEREOF” (FUJIFILM Corporation, priority 2023, published 2026)
# Bridge positions count the residues as written; N and C are the ends. Ends that are not written are not given here. COCH2 = acetyl group that carries the bridge
# Target: T1, Recombinant Human FGFR2 alpha (IIIc) Fc Chimera Protein (Homo sapiens, UniProt P21802)
# T1 construct: Fc (chimera); purchased R&D systems 712-FR-050
# Experiment: ELISA binding affinity of enzymatically synthesized peptide to FGFR
# Conditions: ELISA luminescence signal at 10 nmol/L peptide, SEQ ID NO: 47 at 10 nmol/L standardized to 1; enzyme synthesis product
# How it was run: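 FGFR2 alpha (IIIc) Fc chimera (5 ng/well) was immobilized, and Myc-tagged peptide was bound 3 h at room temperature, then detected with anti-Myc antibody (2 h) and chemiluminescent substrate. Signal was corrected against FGFR-free wells. Score A–D was the luminescence at 10 nmol/L peptide, normalized to cyclic peptide SEQ ID NO: 47.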
# T1 sequence (P21802 with tags, fused parts or gaps limits assumed): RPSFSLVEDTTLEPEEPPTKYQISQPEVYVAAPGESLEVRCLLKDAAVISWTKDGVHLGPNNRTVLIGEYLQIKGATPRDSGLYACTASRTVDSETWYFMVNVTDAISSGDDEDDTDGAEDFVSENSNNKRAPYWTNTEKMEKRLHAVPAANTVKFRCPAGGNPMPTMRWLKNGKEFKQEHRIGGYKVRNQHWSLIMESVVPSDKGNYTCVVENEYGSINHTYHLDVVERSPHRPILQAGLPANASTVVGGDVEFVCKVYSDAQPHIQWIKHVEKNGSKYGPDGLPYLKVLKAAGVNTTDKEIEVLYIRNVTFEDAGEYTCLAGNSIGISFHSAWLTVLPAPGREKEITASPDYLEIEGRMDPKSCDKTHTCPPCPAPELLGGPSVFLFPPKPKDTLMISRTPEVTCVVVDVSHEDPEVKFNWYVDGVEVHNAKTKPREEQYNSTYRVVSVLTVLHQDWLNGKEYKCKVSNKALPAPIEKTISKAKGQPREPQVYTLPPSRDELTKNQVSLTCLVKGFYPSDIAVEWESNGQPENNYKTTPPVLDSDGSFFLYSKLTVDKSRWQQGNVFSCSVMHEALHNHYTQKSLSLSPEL
row,Evaluation result of binding affinity to FGFR,Substance
1,A (0.7 or more),302 (YCEENYLDPEQYQYFIDFK(COCH2)Y; thioether 2-19 (inferred)) [compound 302]
2,A (0.7 or more),303 (YCEENYLDPEQYQYFIEFK(COCH2)Y; thioether 2-19 (inferred)) [compound 303]
3,A (0.7 or more),304 (YCEENYLDPEQYQYFIRFK(COCH2)Y; thioether 2-19 (inferred)) [compound 304]
4,A (0.7 or more),305 (YCEENYLDPEQYQYFIHFK(COCH2)Y; thioether 2-19 (inferred)) [compound 305]
5,A (0.7 or more),306 (YCEENYLDPEQYQYFIYYK(COCH2)Y; thioether 2-19 (inferred)) [compound 306]
6,A (0.7 or more),307 (YCEENYLDPEQYQYFIYWK(COCH2)Y; thioether 2-19 (inferred)) [compound 307]
7,A (0.7 or more),308 (YCEENYLDPEQYQYFIYFK(COCH2)G; thioether 2-19 (inferred)) [compound 308]
8,A (0.7 or more),309 (YCEENYLDPEQYQYFIYFK(COCH2)L; thioether 2-19 (inferred)) [compound 309]
9,A (0.7 or more),310 (YCEENYLDPEQYQYFIYFK(COCH2)I; thioether 2-19 (inferred)) [compound 310]
10,A (0.7 or more),311 (YCEENYLDPEQYQYFIYFK(COCH2)V; thioether 2-19 (inferred)) [compound 311]
11,A (0.7 or more),312 (YCEENYLDPEQYQYFIYFK(COCH2)F; thioether 2-19 (inferred)) [compound 312]
12,A (0.7 or more),313 (YCEENYLDPEQYQYFIYFK(COCH2)W; thioether 2-19 (inferred)) [compound 313]
13,A (0.7 or more),314 (YCEENYLDPEQYQYFIYFK(COCH2)N; thioether 2-19 (inferred)) [compound 314]
14,A (0.7 or more),315 (YCEENYLDPEQYQYFIYFK(COCH2)Q; thioether 2-19 (inferred)) [compound 315]
15,A (0.7 or more),316 (YCEENYLDPEQYQYFIYFK(COCH2)S; thioether 2-19 (inferred)) [compound 316]
16,A (0.7 or more),317 (YCEENYLDPEQYQYFIYFK(COCH2)T; thioether 2-19 (inferred)) [compound 317]
17,A (0.7 or more),318 (YCEENYLDPEQYQYFIYFK(COCH2)D; thioether 2-19 (inferred)) [compound 318]
18,A (0.7 or more),319 (YCEENYLDPEQYQYFIYFK(COCH2)E; thioether 2-19 (inferred)) [compound 319]
19,A (0.7 or more),320 (YCEENYLDPEQYQYFIYFK(COCH2)R; thioether 2-19 (inferred)) [compound 320]
20,A (0.7 or more),321 (YCEENYLDPEQYQYFIYFK(COCH2)H; thioether 2-19 (inferred)) [compound 321]
21,A (0.7 or more),322 (ACEENYLDPEQYQYFIYFK(COCH2)Y; thioether 2-19 (inferred)) [compound 322]

row,Evaluation result of binding affinity to FGFR,Substance
1,A (0.7 or more),323 (YCAENYLDPEQYQYFIYFK(COCH2)Y; thioether 2-19 (inferred)) [compound 323]
2,A (0.7 or more),324 (YCEANYLDPEQYQYFIYFK(COCH2)Y; thioether 2-19 (inferred)) [compound 324]
3,C (0.1 or more and less than 0.5),325 (YCEEAYLDPEQYQYFIYFK(COCH2)Y; thioether 2-19 (inferred)) [compound 325]
4,C (0.1 or more and less than 0.5),326 (YCEENALDPEQYQYFIYFK(COCH2)Y; thioether 2-19 (inferred)) [compound 326]
5,C (0.1 or more and less than 0.5),327 (YCEENYADPEQYQYFIYFK(COCH2)Y; thioether 2-19 (inferred)) [compound 327]
6,A (0.7 or more),328 (YCEENYLAPEQYQYFIYFK(COCH2)Y; thioether 2-19 (inferred)) [compound 328]
7,A (0.7 or more),329 (YCEENYLDAEQYQYFIYFK(COCH2)Y; thioether 2-19 (inferred)) [compound 329]
8,A (0.7 or more),330 (YCEENYLDPAQYQYFIYFK(COCH2)Y; thioether 2-19 (inferred)) [compound 330]
9,A (0.7 or more),331 (YCEENYLDPEQYAYFIYFK(COCH2)Y; thioether 2-19 (inferred)) [compound 331]
10,A (0.7 or more),332 (YCEENYLDPEQYQYFAYFK(COCH2)Y; thioether 2-19 (inferred)) [compound 332]
11,A (0.7 or more),333 (YCEENYLDPEQYQYFIAFK(COCH2)Y; thioether 2-19 (inferred)) [compound 333]
12,A (0.7 or more),334 (YCEENYLDPEQYQYFIYFK(COCH2)A; thioether 2-19 (inferred)) [compound 334]
13,A (0.7 or more),335 (KCEENYLDPEQYQYFIYFK(COCH2)Y; thioether 2-19 (inferred)) [compound 335]
14,A (0.7 or more),336 (YCKENYLDPEQYQYFIYFK(COCH2)Y; thioether 2-19 (inferred)) [compound 336]
15,A (0.7 or more),337 (YCEKNYLDPEQYQYFIYFK(COCH2)Y; thioether 2-19 (inferred)) [compound 337]
16,C (0.1 or more and less than 0.5),338 (YCEENKLDPEQYQYFIYFK(COCH2)Y; thioether 2-19 (inferred)) [compound 338]
17,A (0.7 or more),339 (YCEENYKDPEQYQYFIYFK(COCH2)Y; thioether 2-19 (inferred)) [compound 339]
18,C (0.1 or more and less than 0.5),340 (YCEENYLKPEQYQYFIYFK(COCH2)Y; thioether 2-19) [compound 340]
19,A (0.7 or more),341 (YCEENYLDKEQYQYFIYFK(COCH2)Y; thioether 2-19) [compound 341]
20,A (0.7 or more),342 (YCEENYLDPKQYQYFIYFK(COCH2)Y; thioether 2-19) [compound 342]
21,A (0.7 or more),343 (YCEENYLDPEQYKYFIYFK(COCH2)Y; thioether 2-19) [compound 343]

row,Evaluation result of binding affinity to FGFR,Substance
1,A (0.7 or more),344 (YCEENYLDPEQYQYFKYFK(COCH2)Y; thioether 2-19) [compound 344]
2,A (0.7 or more),345 (YCEENYLDPEQYQYFIKFK(COCH2)Y; thioether 2-19) [compound 345]
3,A (0.7 or more),346 (YCEENYLDPEQYQYFIYFK(COCH2)K; thioether 2-19) [compound 346]
4,A (0.7 or more),347 (MCEENYLDPEQYQYFIYFK(COCH2)Y; thioether 2-19) [compound 347]
5,A (0.7 or more),348 (YCMENYLDPEQYQYFIYFK(COCH2)Y; thioether 2-19) [compound 348]
6,A (0.7 or more),349 (YCEMNYLDPEQYQYFIYFK(COCH2)Y; thioether 2-19) [compound 349]
7,A (0.7 or more),350 (YCEENMLDPEQYQYFIYFK(COCH2)Y; thioether 2-19) [compound 350]
8,A (0.7 or more),351 (YCEENYMDPEQYQYFIYFK(COCH2)Y; thioether 2-19) [compound 351]
9,A (0.7 or more),352 (YCEENYLMPEQYQYFIYFK(COCH2)Y; thioether 2-19) [compound 352]
10,A (0.7 or more),353 (YCEENYLDMEQYQYFIYFK(COCH2)Y; thioether 2-19) [compound 353]
11,A (0.7 or more),354 (YCEENYLDPMQYQYFIYFK(COCH2)Y; thioether 2-19) [compound 354]
12,C (0.1 or more and less than 0.5),355 (YCEENYLDPEQMQYFIYFK(COCH2)Y; thioether 2-19) [compound 355]
13,A (0.7 or more),356 (YCEENYLDPEQYMYFIYFK(COCH2)Y; thioether 2-19) [compound 356]
14,C (0.1 or more and less than 0.5),357 (YCEENYLDPEQYQMFIYFK(COCH2)Y; thioether 2-19) [compound 357]
15,A (0.7 or more),358 (YCEENYLDPEQYQYFMYFK(COCH2)Y; thioether 2-19) [compound 358]
16,A (0.7 or more),359 (YCEENYLDPEQYQYFIMFK(COCH2)Y; thioether 2-19) [compound 359]
17,A (0.7 or more),360 (YCEENYLDPEQYQYFIYFK(COCH2)M; thioether 2-19) [compound 360]
18,C (0.1 or more and less than 0.5),361 (QCYYLYWYLYK(COCH2)I; thioether 2-11) [compound 361]
19,C (0.1 or more and less than 0.5),362 (LCYLYQYLYTTK(COCH2)Y; thioether 2-12) [compound 362]
